Measurements reported in patent publication US20220267469A1 (LIPUM, published 2022).
Where a chain is given by its changes, count along the chain named. Numbers in names are those of the source. Blank lines part the entries; values can stand above or below the binder they belong to.

Assays:
[1] = target: T1, Human BSSL (bile salt-stimulated lipase), native (human, UniProt P19835 21-753); assay: cell-based or functional assay
T1 sequence: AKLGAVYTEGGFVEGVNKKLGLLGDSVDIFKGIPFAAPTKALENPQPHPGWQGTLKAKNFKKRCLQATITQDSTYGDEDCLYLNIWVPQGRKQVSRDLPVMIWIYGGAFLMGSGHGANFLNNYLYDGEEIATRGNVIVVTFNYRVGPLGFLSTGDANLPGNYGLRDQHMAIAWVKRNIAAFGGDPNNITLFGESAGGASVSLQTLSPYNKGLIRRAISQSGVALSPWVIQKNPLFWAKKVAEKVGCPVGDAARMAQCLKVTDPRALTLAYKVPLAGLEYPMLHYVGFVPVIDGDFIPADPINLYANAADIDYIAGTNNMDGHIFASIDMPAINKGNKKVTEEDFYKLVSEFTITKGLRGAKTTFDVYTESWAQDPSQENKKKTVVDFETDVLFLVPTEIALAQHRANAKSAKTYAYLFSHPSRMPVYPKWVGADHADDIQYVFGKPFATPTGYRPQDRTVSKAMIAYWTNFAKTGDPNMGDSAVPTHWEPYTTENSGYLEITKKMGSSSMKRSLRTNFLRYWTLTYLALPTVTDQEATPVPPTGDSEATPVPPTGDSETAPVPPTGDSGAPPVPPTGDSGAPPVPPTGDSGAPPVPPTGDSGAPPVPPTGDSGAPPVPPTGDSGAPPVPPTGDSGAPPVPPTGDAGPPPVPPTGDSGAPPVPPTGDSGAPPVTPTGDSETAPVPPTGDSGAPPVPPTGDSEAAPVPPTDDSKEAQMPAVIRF

[2] = target: T2, Mouse BSSL, recombinant (mouse, UniProt Q64285 21-599); assay: SPR steady state, hIgG4 S228P captured by anti-Fab
T2 construct: Bought (R&D Systems, Cat. no 5658-CE); also called mBSSL; murine BSSL
T2 sequence: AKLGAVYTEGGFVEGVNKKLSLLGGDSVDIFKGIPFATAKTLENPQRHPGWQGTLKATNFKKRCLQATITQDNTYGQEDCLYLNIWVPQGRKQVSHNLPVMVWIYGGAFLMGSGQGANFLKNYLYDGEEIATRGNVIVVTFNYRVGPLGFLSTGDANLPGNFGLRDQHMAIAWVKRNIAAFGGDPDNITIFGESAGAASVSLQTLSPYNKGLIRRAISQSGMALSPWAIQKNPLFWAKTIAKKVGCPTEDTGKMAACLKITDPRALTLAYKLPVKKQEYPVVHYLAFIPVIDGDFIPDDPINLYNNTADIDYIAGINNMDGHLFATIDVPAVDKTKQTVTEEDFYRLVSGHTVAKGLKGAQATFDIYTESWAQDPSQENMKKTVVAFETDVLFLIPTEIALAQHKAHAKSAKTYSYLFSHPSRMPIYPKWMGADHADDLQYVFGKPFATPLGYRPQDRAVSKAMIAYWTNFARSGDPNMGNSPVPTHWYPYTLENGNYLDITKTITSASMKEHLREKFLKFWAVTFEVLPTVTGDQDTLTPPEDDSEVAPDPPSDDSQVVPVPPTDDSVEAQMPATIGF
Description: (§1) Kinetic parameters of the hIgG4 S228P clones were determined by SPR using BIACORE® T200 (GE Healthcare). Single cycle kinetics was used to measure the affinity of the purified hIgG4 molecules to human and mouse BSSL. An anti-Fab antibody (GE Healthcare, #28958325) was immobilized on a CM5 S sensor chip by primary amine coupling using NHS-EDC chemistry. hIgG4 was captured by the anti-Fab antibody, and subsequently, five different concentrations of hBSSL (1:5 dilutions starting from 50 nM) or mBSSL (1:5 dilutions starting from 500 nM) were injected over the surface. The sensor chip surface was regenerated with 10 mM glycine-HCl pH 2.1. For binding to human BSSL, single cycle kinetic data was fitted to a 1:1 binding model and kinetic parameters were retrieved using software BlAevaluation. For mouse BSSL, a steady state analysis was performed by plotting the response level at equilibrium against each concentration, and KD values were retrieved by the BlAevalution software.

[3] = target: T3, Biotinylated human BSSL (human, UniProt P19835 21-753, Biotinylated on glycosacarides, 30-40 biotin/BSSL); assay: flow cytometry displacement assay; 3.0 ug antibody, 1 ug b-hBSSL
T3 construct: hBSSL biotinylated in house; also called b-hBSSL; human BSSL-biotin
T3 sequence: T1 sequence
Description: (§2) The 28 BSSL-specific hIgG4 antibodies and the five reference antibodies at different concentrations (ranging from 0.5 μg to 3.0 μg per reaction; see Table 10) were added to b-hBSSL (1 μg per reaction, see Table 2) in round-bottom polystyrene tubes, lx PBS (pH 7.4) was added to a final volume of 20 μl and the antibody/b-hBSSL mixtures were incubated for 30 min. at +4° C. to facilitate binding of antibodies to BSSL. Buffy coat (50 μl) was then added to each antibody/b-hBSSL mixture and incubation continued for another 30 min at +4° C. Thereafter, 2 ml of FACS lysing solution (BD Biosciences) was added and the cells were incubated for 10 min at room temperature in order to lyse erythrocytes and fix the white blood cells. The cells were then centrifuged for 5 min. at 200×g, the resulting pellets were washed by adding 2 ml of FACS buffer (1×PBS supplemented with 1% FCS and 0.1% NaN3) and centrifuged again. Finally, the supernatants were discarded and the cells were resuspended in the last drop of liquid, approximately 50 μl.
(§3) 5 μl of BV421-labelled anti-human CD14 (BD Biosciences) and 5 μl of BB515-labelled streptavidin (BD Biosciences) was added to each tube and incubated for 30 min, at +4° C., protected from light. Thereafter, cells were washed twice with FACS buffer, resuspended in 500 μl FACS buffer, and run on BD LSRII flow cytometer (BD Biosciences). Finally, data were analyzed using FlowJo software (BD Biosciences).

[4] = target: T3, Biotinylated human BSSL; assay: flow cytometry displacement assay; 1.5 ug antibody, 1 ug b-hBSSL
Description: as §2, §3

[5] = target: T2, Mouse BSSL, recombinant; assay: SPR steady state, captured by anti-Fab, Absolute Antibody batch
Description: as §1, with “Healthcare).” for “Healthcare). Single cycle kinetics was used to measure the affinity of the purified hIgG4 molecules to human and mouse BSSL.”, “(GE” for “(GE Healthcare,”, “chemistry. The” for “chemistry.”, “hIgG4 antibodies were” for “hIgG4 was”, “(1:5 dilutions, 0.08-50” for “(1:5 dilutions starting from 50”, “mBSSL (1:2 dilutions, 50-800” for “mBSSL (1:5 dilutions starting from 500”

[6] = target: T1, Human BSSL (bile salt-stimulated …); assay: SPR single cycle kinetics, hIgG4 S228P captured by anti-Fab
Description: as §1

[7] = target: T1, Human BSSL (bile salt-stimulated …); assay: SPR single cycle kinetics, captured by anti-Fab, Absolute Antibody batch
Description: as §1, with “Healthcare).” for “Healthcare). Single cycle kinetics was used to measure the affinity of the purified hIgG4 molecules to human and mouse BSSL.”, “(GE” for “(GE Healthcare,”, “chemistry. The” for “chemistry.”, “hIgG4 antibodies were” for “hIgG4 was”, “(1:5 dilutions, 0.08-50” for “(1:5 dilutions starting from 50”, “mBSSL (1:2 dilutions, 50-800” for “mBSSL (1:5 dilutions starting from 500”

[8] = target: T1, Human BSSL (bile salt-stimulated …); assay: cell-based or functional assay; remark: listed apart in the source
[9] = target: T3, Biotinylated human BSSL; assay: flow cytometry displacement assay; 0.5 ug antibody, 1 ug b-hBSSL
Description: as §2, §3

[10] = target: T3, Biotinylated human BSSL; assay: flow cytometry displacement assay; 1.0 ug antibody, 1 ug b-hBSSL
Description: as §2, §3

[11] = target: T3, Biotinylated human BSSL; assay: flow cytometry displacement assay; 2.0 ug antibody, 1 ug b-hBSSL
Description: as §2, §3

- BSSL hydrolysis of cholesterol esters, relative value (no antibody = 100%); 0.19 ug antibody [1]: 95.7%
- BSSL hydrolysis of cholesterol esters, relative value (no antibody = 100%); 0.38 ug antibody [1]: 99%
- BSSL hydrolysis of cholesterol esters, relative value (no antibody = 100%); 0.75 ug antibody [1]: 97.6%
- BSSL hydrolysis of cholesterol esters, relative value (no antibody = 100%); 1.5 ug antibody [1]: 88.3%
- BSSL hydrolysis of cholesterol esters, relative value (no antibody = 100%); 3.0 ug antibody [1]: 93.5%
- BSSL hydrolysis of cholesterol esters, relative value (no antibody = 100%); 6.0 ug antibody [1]: 97.7%
- Kd [2]: 24 nM
- percentage reduction of b-hBSSL binding to CD14+ monocytes [3]: 61%
- percentage reduction of b-hBSSL binding to CD14+ monocytes [4]: 43%
- Kd [5]: 55 nM
- Kd [6]: 3.7 nM
- Kd [7]: 3.8 nM
- BSSL hydrolysis of triglycerides, relative value (no antibody = 100%); 0.19 ug antibody [8]: 105%
- BSSL hydrolysis of triglycerides, relative value (no antibody = 100%); 0.38 ug antibody [8]: 123%
- BSSL hydrolysis of triglycerides, relative value (no antibody = 100%); 0.75 ug antibody [8]: 121%
- BSSL hydrolysis of triglycerides, relative value (no antibody = 100%); 1.5 ug antibody [8]: 113%
- BSSL hydrolysis of triglycerides, relative value (no antibody = 100%); 3.0 ug antibody [8]: 119%
- BSSL hydrolysis of triglycerides, relative value (no antibody = 100%); 6.0 ug antibody [8]: 126%
B1: S-SL048-46 hIgG4 S228P (antibody, V domains shown)
VH: QVQLVQSGAEVKKPGASVKVSCKASGYTFTSYNMHWVRQAPGQGLEWMGVINPGDGATSYNQKFQGRVTMTRDTSTSTVYMELSSLRSEDTAVYYCARDYYGSSPLGYWGQGTLVTVSS
VL: DIQMTQSPSSLSASVGDRVTITCRASSSISYLNWYQQKPGKAPKLLIYAASSLASGVPSRFSGSGSGTDFTLTISSLQPEDFATYYCHQRSSSPTFGQGTKLEIKR
notes: also called clone 46; mAb46

- Kd [2]: 30 nM
- percentage reduction of b-hBSSL binding to CD14+ monocytes [9]: 5%
- percentage reduction of b-hBSSL binding to CD14+ monocytes [10]: 23%
- percentage reduction of b-hBSSL binding to CD14+ monocytes [3]: 39%
- percentage reduction of b-hBSSL binding to CD14+ monocytes [11]: 35%
- percentage reduction of b-hBSSL binding to CD14+ monocytes [4]: 21%
B2: S-SL048-65 hIgG4 S228P (antibody, V domains shown)
VH: B1 VH with M48I, N61A, Q65K
VL: DIQMTQSPSSLSASVGDRVTITCSASQSISYLNWYQQKPGKAPKLLIYDASSLPSGVPSRFSGSGSGTDFTLTISSLQPEDFATYYCHQRSSSPTFGQGTKLEIK
notes: Tested as human IgG4 S228P

- BSSL hydrolysis of cholesterol esters, relative value (no antibody = 100%); 0.19 ug antibody [1]: 104%
- BSSL hydrolysis of cholesterol esters, relative value (no antibody = 100%); 0.38 ug antibody [1]: 107%
- BSSL hydrolysis of cholesterol esters, relative value (no antibody = 100%); 0.75 ug antibody [1]: 102%
- BSSL hydrolysis of cholesterol esters, relative value (no antibody = 100%); 1.5 ug antibody [1]: 103%
- BSSL hydrolysis of cholesterol esters, relative value (no antibody = 100%); 3.0 ug antibody [1]: 107%
- BSSL hydrolysis of cholesterol esters, relative value (no antibody = 100%); 6.0 ug antibody [1]: 107%
- Kd [2]: 52 nM
- percentage reduction of b-hBSSL binding to CD14+ monocytes [3]: 64%
- percentage reduction of b-hBSSL binding to CD14+ monocytes [4]: 58%
- Kd [5]: 40 nM
- Kd [6]: 0.6 nM
- Kd [7]: 0.5 nM
- BSSL hydrolysis of triglycerides, relative value (no antibody = 100%); 0.19 ug antibody [8]: 105%
- BSSL hydrolysis of triglycerides, relative value (no antibody = 100%); 0.38 ug antibody [8]: 112%
- BSSL hydrolysis of triglycerides, relative value (no antibody = 100%); 0.75 ug antibody [8]: 100%
- BSSL hydrolysis of triglycerides, relative value (no antibody = 100%); 1.5 ug antibody [8]: 96.2%
- BSSL hydrolysis of triglycerides, relative value (no antibody = 100%); 3.0 ug antibody [8]: 106%
- BSSL hydrolysis of triglycerides, relative value (no antibody = 100%); 6.0 ug antibody [8]: 108%
B3: S-SL048-116 hIgG4 S228P (antibody, V domains shown)
VH: B1 VH with N61A, Q65K
VL: B1 VL with S27P, L32M, A50T
notes: also called mAb116
